Measured values from article PMC8924211 (Nature Communications, 2022).

How the values were obtained:
Assay in all cases: AlphaScreen or HTRF; saturation binding: HEK293 cells transfected with SNAP-tagged receptor (WT or mutant) and labelled with SNAP-Lumi4-Tb, incubated with increasing concentrations of galanin-A2 in the presence or absence of 100 uM unlabeled galanin, 1 h at room temperature; HTRF ratio 665 nm/620 nm
Settings in all cases: one partner purified
SNAP-GAL2R L169^ECL2A = biological target: T1, SNAP-GAL2R L169^ECL2A (human, UniProt O43603 1-387, L169^ECL2A, Lumi4-Tb on the SNAP tag)
T1 construct: also called L169A; source: HEK293, transfected, on cells; not shown: SNAP tag, N-terminal, kept
T1 sequence (looked up): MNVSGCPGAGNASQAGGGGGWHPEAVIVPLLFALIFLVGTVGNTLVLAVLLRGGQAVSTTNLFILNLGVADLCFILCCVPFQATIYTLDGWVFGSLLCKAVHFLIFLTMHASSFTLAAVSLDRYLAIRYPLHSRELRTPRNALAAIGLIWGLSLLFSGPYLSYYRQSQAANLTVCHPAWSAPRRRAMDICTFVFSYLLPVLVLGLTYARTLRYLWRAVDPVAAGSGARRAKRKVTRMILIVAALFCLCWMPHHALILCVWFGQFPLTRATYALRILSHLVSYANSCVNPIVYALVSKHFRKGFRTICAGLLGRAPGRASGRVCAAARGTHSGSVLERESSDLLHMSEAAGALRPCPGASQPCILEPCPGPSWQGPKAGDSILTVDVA

SNAP-GAL2R L255^6.54A = biological target: T2, SNAP-GAL2R L255^6.54A (human, UniProt O43603 1-387, L255^6.54A, Lumi4-Tb on the SNAP tag)
T2 construct: also called L255A; source: HEK293, transfected, on cells; not shown: SNAP tag, N-terminal, kept
T2 sequence (looked up): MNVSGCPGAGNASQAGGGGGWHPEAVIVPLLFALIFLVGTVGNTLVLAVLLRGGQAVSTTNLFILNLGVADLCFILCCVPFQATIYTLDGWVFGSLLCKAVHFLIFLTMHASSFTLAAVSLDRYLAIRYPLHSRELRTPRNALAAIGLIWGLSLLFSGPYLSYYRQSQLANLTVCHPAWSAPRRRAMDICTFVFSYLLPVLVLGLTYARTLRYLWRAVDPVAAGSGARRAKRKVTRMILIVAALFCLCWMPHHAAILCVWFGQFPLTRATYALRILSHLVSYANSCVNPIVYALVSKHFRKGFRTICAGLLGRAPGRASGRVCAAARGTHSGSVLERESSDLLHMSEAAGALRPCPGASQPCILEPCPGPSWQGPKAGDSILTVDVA

SNAP-GAL2R A170^ECL2S = biological target: T3, SNAP-GAL2R A170^ECL2S (human, UniProt O43603 1-387, A170^ECL2S, Lumi4-Tb on the SNAP tag)
T3 construct: also called A170S; source: HEK293, transfected, on cells; not shown: SNAP tag, N-terminal, kept
T3 sequence (looked up): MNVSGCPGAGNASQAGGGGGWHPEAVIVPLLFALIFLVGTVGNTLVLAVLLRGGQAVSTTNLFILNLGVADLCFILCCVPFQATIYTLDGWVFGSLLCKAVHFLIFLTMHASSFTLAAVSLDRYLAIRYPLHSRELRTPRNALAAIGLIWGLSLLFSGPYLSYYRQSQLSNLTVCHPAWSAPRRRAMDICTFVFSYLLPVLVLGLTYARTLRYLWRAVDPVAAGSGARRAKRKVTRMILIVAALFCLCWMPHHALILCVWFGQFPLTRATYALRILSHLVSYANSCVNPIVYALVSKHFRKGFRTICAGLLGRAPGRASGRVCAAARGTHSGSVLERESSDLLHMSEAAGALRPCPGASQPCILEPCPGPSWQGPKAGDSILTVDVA

SNAP-GAL2R L172^ECL2A = biological target: T4, SNAP-GAL2R L172^ECL2A (human, UniProt O43603 1-387, L172^ECL2A, Lumi4-Tb on the SNAP tag)
T4 construct: also called L172A; source: HEK293, transfected, on cells; not shown: SNAP tag, N-terminal, kept
T4 sequence (looked up): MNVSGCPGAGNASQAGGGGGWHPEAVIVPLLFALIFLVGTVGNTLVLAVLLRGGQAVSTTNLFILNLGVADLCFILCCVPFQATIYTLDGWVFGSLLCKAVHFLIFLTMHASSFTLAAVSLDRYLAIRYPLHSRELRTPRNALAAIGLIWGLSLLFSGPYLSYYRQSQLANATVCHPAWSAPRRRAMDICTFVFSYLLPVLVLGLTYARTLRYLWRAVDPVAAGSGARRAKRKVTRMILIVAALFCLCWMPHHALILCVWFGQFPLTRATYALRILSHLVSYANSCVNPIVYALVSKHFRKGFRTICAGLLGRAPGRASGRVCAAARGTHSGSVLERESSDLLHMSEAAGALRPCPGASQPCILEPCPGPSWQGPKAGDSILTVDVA

B1: galanin-A2 (full-length galanin labeled with the dye A2 on an additional cysteine at the C-terminal end) (peptide)
peptide: GWTLNSAGYLLGPHAVGNHRSFSDKNGLTSC
modifications: dye A2 on the additional C-terminal cysteine
notes: numbers count on: the mature protein; additional cysteine at the C-terminal end of the peptide, carries the dye A2; source: synthetic peptide (synthesized by Vazyme, China)
Q: Which Kd (SNAP-GAL2R L169^ECL2A) does the source give for B1 here?
A: The Kd was 86.2 nM.

Q: What about the Kd (SNAP-GAL2R L255^6.54A) of the same binder?
A: Its Kd is 55.1 nM.

Q: What about the Kd (SNAP-GAL2R A170^ECL2S) of the same binder?
A: Its Kd is 33.5 nM.

Q: What about the Kd (SNAP-GAL2R L172^ECL2A) of the same binder?
A: The Kd was 51.6 nM.
